B1: Pistol ribozyme (parent)
chain: GGGUCGUUGUUCCAUAAUCGCGUGGAUAUGGCACGCAAGUUUCUACCGGGCACCGUAAAUGUCCGACUGGAGCCGUUCGGGCGGCUAUAAACAGACCUCAGGCCCGAAGCGUGGCGGCACCUGCCGCCGGUGGUAAAAAAGAUCGGAAGAGCACACGUCU

In this data set the parent is B1. As to the kind of experiment: aptazyme ON/OFF ratio, guanine; higher = stronger switching; co-transcriptional cleavage with and without guanine.
Take U8G C12U C13G: the “aptazyme ON/OFF ratio” value is 1.4. The result for U8G C12U C13A reads 1.23; that for U8C U10G C12U, 1.36. On to U8C U10G C12A, for which the “aptazyme ON/OFF ratio” value worked out at 1.12.

For U8C U10G C12G, the “aptazyme ON/OFF ratio” value stood at 1.07. With U8C U10G C13U, the “aptazyme ON/OFF ratio” value was determined as 1.37. The result for U8C U10G C13G reads 1.15. Then U8C U10G C13A, with 1.27. Then U8C U10G U11A C12A C13A, with 1.18; and U8C U10G U11A C12A C13U, with 1.2. For U8C U10G U11A C12A C13G, the “aptazyme ON/OFF ratio” value was found to be 1.15. The result for U8G C12A C13G reads 1.13; that for U8G C12A C13U, 1.12; that for U8G C12A C13A, 1.25. On to U8C U10C U11G, for which the “aptazyme ON/OFF ratio” value amounted to 1.42. The result for U8C U10C U11C reads 1.85. As for U8C U11C C13U, the “aptazyme ON/OFF ratio” value stood at 1.19. Turning to U8C U11C C13A, the “aptazyme ON/OFF ratio” value was 1.21. As for U8C U11C C13G, the “aptazyme ON/OFF ratio” value is 1.11. As to U8G C12G, the “aptazyme ON/OFF ratio” value was determined as 1.52. Then U8G C12A, with 1.69. On to U8G C12U, for which the “aptazyme ON/OFF ratio” value worked out at 1.64. Then U8C U10G U11C C12G, with 1.78; and U8C U10G U11C C12A, with 2.79. Take U8C U10G U11C C12U: the “aptazyme ON/OFF ratio” value stood at 1.21. The result for U8C U11C C12A C13U reads 1.73. Then U8C U11C C12A C13A, with 1.24. Then U8C U11C C12A C13G, with 1.4.

On to U8C U10C U11A C12G, for which the “aptazyme ON/OFF ratio” value is 1.35. Then U8C U10C U11A C12U, with 1.39. As for U8C U10G C12U C13G, the “aptazyme ON/OFF ratio” value is 1.11. On to U8C U10G C12U C13U, for which the “aptazyme ON/OFF ratio” value came to 1.2.

For the variant U8C U10G C12U C13A, the “aptazyme ON/OFF ratio” value was determined as 1.21. Then U8C U11A C12U C13G, with 1.18. Then U8C U11A C12U C13A, with 1.21; and U8C U11A C12U C13U, with 1.13. The result for U8C U11A C13A reads 1.13; that for U8C U11A C13U, 1.11; that for U8C U11A C13G, 1.07. Take U8C U10G U11C C12A C13A: the “aptazyme ON/OFF ratio” value turned out to be 1.24.

In the case of U8C U10G U11C C12A C13G, the “aptazyme ON/OFF ratio” value was found to be 1.11. Turning to U8C U10G U11C C12A C13U, the “aptazyme ON/OFF ratio” value came out at 1.32.

In the case of U8C U10G U11A C12G C13A, the “aptazyme ON/OFF ratio” value is 1.13.

As for U8C U10G U11A C12G C13U, the “aptazyme ON/OFF ratio” value was 1.18.

For the variant U8C U10G U11A C12G C13G, the “aptazyme ON/OFF ratio” value was 1.15. In the case of U8C U10C U11G C12A C13A, the “aptazyme ON/OFF ratio” value was determined as 1.17. Then U8C U10C U11G C12A C13G, with 1.21. The result for U8C U10C U11G C12A C13U reads 1.33; that for U8C U10C U11C C12G C13U, 1.3. With U8C U10C U11C C12G C13A, the “aptazyme ON/OFF ratio” value is 1.29. Turning to U8C U10C U11C C12G C13G, the “aptazyme ON/OFF ratio” value was 1.35. Consider U8C U10C U11G C12A, for which the “aptazyme ON/OFF ratio” value was determined as 1.15. U8C U10C U11G C12G: the “aptazyme ON/OFF ratio” value is 1.25.

For the variant U8C U10C U11G C12U, the “aptazyme ON/OFF ratio” value is 1.39. Take U8C U11C C12G C13U: the “aptazyme ON/OFF ratio” value came to 1.36.

Turning to U8C U11C C12G C13A, the “aptazyme ON/OFF ratio” value amounted to 1.37. Then U8C U11C C12G C13G, with 1.36; and U8C U11G C12G, with 1.23; and U8C U11G C12A, with 1.15. The result for U8C U11G C12U reads 1.26; that for U8C U10G U11G C12U, 1.32. On to U8C U10G U11G C12A, for which the “aptazyme ON/OFF ratio” value was determined as 1.18. Consider U8C U10G U11G C12G, for which the “aptazyme ON/OFF ratio” value worked out at 1.25.

For U8G C12G C13A, the “aptazyme ON/OFF ratio” value amounted to 1.2. The result for U8G C12G C13U reads 1.55; that for U8G C12G C13G, 1.15; that for U8C U10C U11C C13A, 1.08. Regarding U8C U10C U11C C13G, the “aptazyme ON/OFF ratio” value is 1.19. Then U8C U10C U11C C13U, with 1.08; and U8C U10G U11G C12A C13U, with 1.22. The result for U8C U10G U11G C12A C13G reads 1.09. Regarding U8C U10G U11G C12A C13A, the “aptazyme ON/OFF ratio” value came out at 1.11. Turning to U8C U10C U11A C12U C13U, the “aptazyme ON/OFF ratio” value was 1.35. The result for U8C U10C U11A C12U C13A reads 1.26. On to U8C U10C U11A C12U C13G, for which the “aptazyme ON/OFF ratio” value worked out at 1.23. With U8C U10G U11G, the “aptazyme ON/OFF ratio” value is 1.26. Regarding U8C U10G U11C, the “aptazyme ON/OFF ratio” value was 1.1. The result for U8C U10G U11A reads 1.07. The result for U8C U11G C13G reads 1.06. U8C U11G C13U: the “aptazyme ON/OFF ratio” value came to 1.17. As to U8C U11G C13A, the “aptazyme ON/OFF ratio” value is 1.05. As for U8C U10G U11C C12U C13A, the “aptazyme ON/OFF ratio” value is 1.26.

Consider U8C U10G U11C C12U C13U, for which the “aptazyme ON/OFF ratio” value is 1.28. With U8C U10G U11C C12U C13G, the “aptazyme ON/OFF ratio” value came out at 1.19. For the variant U8C U11C C12G, the “aptazyme ON/OFF ratio” value was found to be 1.34.

Turning to U8C U11C C12U, the “aptazyme ON/OFF ratio” value came out at 1.55. In the case of U8C U11C C12A, the “aptazyme ON/OFF ratio” value turned out to be 1.14. As to U8C U11G C12U C13A, the “aptazyme ON/OFF ratio” value was determined as 1.08. Then U8C U11G C12U C13U, with 1.17; and U8C U11G C12U C13G, with 1.07; and U8C U10G U11G C12G C13U, with 1.26. The result for U8C U10G U11G C12G C13G reads 1.13. As for U8C U10G U11G C12G C13A, the “aptazyme ON/OFF ratio” value amounted to 1.16.

Regarding U8C U10C U11A C13G, the “aptazyme ON/OFF ratio” value was determined as 1.23. Regarding U8C U10C U11A C13A, the “aptazyme ON/OFF ratio” value is 1.32. On to U8C U10C U11A C13U, for which the “aptazyme ON/OFF ratio” value was found to be 1.28. For the variant U8C U11G C12A C13A, the “aptazyme ON/OFF ratio” value came to 1.16. Take U8C U11G C12A C13G: the “aptazyme ON/OFF ratio” value is 1.16.

In the case of U8C U11G C12A C13U, the “aptazyme ON/OFF ratio” value was 1.16. Then U8C U11A C12G C13A, with 1.1; and U8C U11A C12G C13G, with 1.16. The result for U8C U11A C12G C13U reads 1.14; that for U8C U11G C12G C13U, 1.11.

U8C U11G C12G C13A: the “aptazyme ON/OFF ratio” value was 1.13. The result for U8C U11G C12G C13G reads 1.19. In the case of U8C U10C U11C C12U C13U, the “aptazyme ON/OFF ratio” value amounted to 1.28.

Consider U8C U10C U11C C12U C13A, for which the “aptazyme ON/OFF ratio” value was determined as 1.23. U8C U10C U11C C12U C13G: the “aptazyme ON/OFF ratio” value is 1.26. For U8C U10G U11C C13G, the “aptazyme ON/OFF ratio” value turned out to be 1.07.

On to U8C U10G U11C C13U, for which the “aptazyme ON/OFF ratio” value came to 1.04. The result for U8C U10G U11C C13A reads 1.05; that for U8C U10C U11G C12G C13G, 1.15; that for U8C U10C U11G C12G C13A, 1.25. In the case of U8C U10C U11G C12G C13U, the “aptazyme ON/OFF ratio” value is 1.08. Then U8C U10G U11A C12U C13A, with 1.35; and U8C U10G U11A C12U C13U, with 1.25. The result for U8C U10G U11A C12U C13G reads 1.12. The result for U8C U11A C12A C13G reads 1.11. For U8C U11A C12A C13A, the “aptazyme ON/OFF ratio” value amounted to 1.32.

Consider U8C U11A C12A C13U, for which the “aptazyme ON/OFF ratio” value came to 1.28. Consider U8C U10C U11C C12U, for which the “aptazyme ON/OFF ratio” value was 1.44. For U8C U10C U11C C12G, the “aptazyme ON/OFF ratio” value was 1.18. The result for U8C U10C U11C C12A reads 1.25; that for U8C U10G U11C C12G C13A, 1.18; that for U8C U10G U11C C12G C13G, 1.17. On to U8C U10G U11C C12G C13U, for which the “aptazyme ON/OFF ratio” value was found to be 1.32.

In the case of U8C U10G, the “aptazyme ON/OFF ratio” value stood at 1.76. Then U8C U10G C12A C13U, with 1.11; and U8C U10G C12A C13G, with 1.11; and U8C U10G C12A C13A, with 1.11. Take U8C U11C C12U C13G: the “aptazyme ON/OFF ratio” value came out at 1.5. The result for U8C U11C C12U C13U reads 1.33; that for U8C U11C C12U C13A, 1.19; that for U8C U10G U11A C13G, 1.19. Then U8C U10G U11A C13A, with 1.26. The result for U8C U10G U11A C13U reads 1.18; that for U8C U10C U11C C12A C13G, 1.33; that for U8C U10C U11C C12A C13U, 1.36. Turning to U8C U10C U11C C12A C13A, the “aptazyme ON/OFF ratio” value came to 1.32. As to U8C U10G U11G C12U C13G, the “aptazyme ON/OFF ratio” value is 1.12. Then U8C U10G U11G C12U C13A, with 1.11; and U8C U10G U11G C12U C13U, with 1.23; and U8C U10C U11A C12G C13U, with 1.24.

Consider U8C U10C U11A C12G C13A, for which the “aptazyme ON/OFF ratio” value amounted to 1.2.

For the variant U8C U10C U11A C12G C13G, the “aptazyme ON/OFF ratio” value stood at 1.24. In the case of U8G, the “aptazyme ON/OFF ratio” value was determined as 3.01. As to U8C U11A C12U, the “aptazyme ON/OFF ratio” value amounted to 1.19. Then U8C U11A C12G, with 1.25. As for U8C U11A C12A, the “aptazyme ON/OFF ratio” value turned out to be 1.34. Then U8C U10G U11G C13U, with 1.22; and U8C U10G U11G C13G, with 1.2. The result for U8C U10G U11G C13A reads 1.25.

Turning to U8C U10G U11A C12G, the “aptazyme ON/OFF ratio” value turned out to be 1.23. U8C U10G U11A C12A: the “aptazyme ON/OFF ratio” value amounted to 1.32. Turning to U8C U10G U11A C12U, the “aptazyme ON/OFF ratio” value is 1.08.

In the case of U8C U10G C12G C13G, the “aptazyme ON/OFF ratio” value turned out to be 1.12. The result for U8C U10G C12G C13U reads 1.12. The result for U8C U10G C12G C13A reads 1.09. The result for U8C U11G reads 1.26. As to U8C U11A, the “aptazyme ON/OFF ratio” value worked out at 1.15. On to U8C U11C, for which the “aptazyme ON/OFF ratio” value stood at 1.18. The result for U8C U10C U11G C12U C13U reads 1.46; that for U8C U10C U11G C12U C13G, 1.28. Then U8C U10C U11G C12U C13A, with 1.26; and U8C U10C U11G C13G, with 1.14.

In the case of U8C U10C U11G C13A, the “aptazyme ON/OFF ratio” value was found to be 1.26. On to U8C U10C U11G C13U, for which the “aptazyme ON/OFF ratio” value turned out to be 1.28.
